The results in this text go back to the supplement of paper PMC9170038.

What all share (conditions): FMN input: 0 or 200 uM; Eterna round: R93 (includes R88 designs)
Series [1] relates to MS2 coat protein. Description: apparent KD of MS2 coat protein, switch OFF state (with FMN for OFF switches, without FMN for ON switches); designed switch direction (-1 OFF switch, 1 ON switch): 1; higher = weaker reporter binding. In outline: (§1)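 Designed RNA switches, transcribed on-chip from Illumina sequencing clusters, were titrated with SNAP-549-labelled MS2 coat protein from 0.7 or 1.5 nM to 3 µM in twofold steps. The solution was 100 mM Tris-HCl pH 7.5, 80 mM KCl, 4 mM MgCl2, with constant ligand or without it. Apparent KD is the median over each design's normalised cluster binding-curve fits.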

Series [2] deals with MS2 coat protein. As to the kind of experiment: apparent KD of MS2 coat protein, switch ON state; designed switch direction (-1 OFF switch, 1 ON switch): 1; higher = weaker reporter binding. An outline of the steps:
as §1

Series [3] deals with MS2 coat protein. As to the kind of experiment: apparent KD of MS2 coat protein, switch OFF state (with FMN for OFF switches, without FMN for ON switches); designed switch direction (-1 OFF switch, 1 ON switch): -1; higher = weaker reporter binding. An outline of the steps: as §1
Series [4] deals with MS2 coat protein. Description: apparent KD of MS2 coat protein, switch ON state; designed switch direction (-1 OFF switch, 1 ON switch): -1; higher = weaker reporter binding. An outline of the steps: as §1

As for “AAAAAAAAAACAUAGGAUAUCCGGGCCGGGACAUGAGGAUCACCCAUGUCAAAAAAAAUUGGCCCGGAGAAGGAUGAAAAAAAAAA [SAmeState2-II]”, the “apparent KD of MS2 coat protein” value with MS2 coat protein [1] came to 14 nM; in the series with MS2 coat protein [2], 11.5 nM.
For “AAAAAAAAAAGGCAGGAUAUUCAAAAAAAAACAUGAGGAUCACCCAUGUAAAAAAAAAAAAAAUGGAAGAAGGGCCAAAAAAAAAA [Fiskers Same State 2 D1]” the same measures were 28 nM and 18.8 nM.
As for “AAAAAAAAAAGUGAGGAUAUGUGAUCGGUGACAUGAGGAUCACCCAUGUGAGGCCUUCGGGCCGGACAGAAGGCACAAAAAAAAA [Same State 2-X]”, the “apparent KD of MS2 coat protein” value worked out at 257 nM in the series with MS2 coat protein [1] and 78.1 nM in the series on MS2 coat protein [2].
On to “AAAAAAAAGCCCAAGGAUAUCCGGAUGAAGACAUGAGGAUCACCCAUGUGAAAAAAAAAAUAUGAGGAGAAGGUGGGAAAAAAAAA [Esgemaedso]”, for which the “apparent KD of MS2 coat protein” value in the series with MS2 coat protein [1] turned out to be 76.6 nM; with MS2 coat protein [2], 63.4 nM.
Turning to “AAAAAACAUGAGGAUCACCCAUGUAAAAAAAACACAGGAUAUCCCUUUUUUAAAAAAAAAGGAGAAGGGUGAAAAA [Nob's Hobby 7 - Jieux - Same State 1]”, the figures for the “apparent KD of MS2 coat protein” value with MS2 coat protein [1] and in the series on MS2 coat protein [2] were 31.5 nM and 31.1 nM, respectively.
As to “AAAAAACAUGAGGAUCACCCAUGUAAAAAAAACACAGGAUAUCCCUUUUUUAAAUGGGAAGGAGAAGGGUGAAAAA [Nob's Hobby 11 - Jieux - Same State 1]”, the “apparent KD of MS2 coat protein” value in the series with MS2 coat protein [1] stood at 36.2 nM; with MS2 coat protein [2], 43.1 nM.
The corresponding values for “AAAAAACAUGAGGAUCACCCAUGUAGAAAUAUGGAAGGAUAUGGAAACACGAAAGUGAAACCAGAAGGUCCAAAAG [77%, Mat - Mod of Eli, 9]” are 23.9 nM and 18 nM.
Turning to “AAAAAACAUGAGGAUCACCCAUGUCGAAAGACAUGAGGAUAUGUACAGACUUCGGUCUGUACAGAAGGCAUGUCAA [SS1 - 1020]”, the results for the “apparent KD of MS2 coat protein” value with MS2 coat protein [1] and with MS2 coat protein [2] were 107 nM and 19.4 nM, respectively.
The corresponding values for “AAAAAACAUGAGGAUCACCCAUGUCUUCGGACGUGAGGAUAUGUACAGACUUCGGUCUGUACAGAAGGCACAAAAA [SS1 - 1033]” are 397 nM and 38.1 nM.
Consider “AAAAAACAUGAGGAUCACCCAUGUGAAAAUAUGGGAGGAUAUACAAAGACGAAAGUCAAAGUAGAAGGCCUAAAAA [Mat - Same State 1 - Eli mod - D86]”, for which the figures for the “apparent KD of MS2 coat protein” value in the series with MS2 coat protein [1] and in the series with MS2 coat protein [2] were 132 nM and 18.4 nM, respectively.
Take “AAAAAACAUGAGGAUCACCCAUGUGAGAACACGGGAGGAUAUACGAAGACGAAAGUCGAAGUAGAAGGCCUAAAAA [Garnet 82]”: the “apparent KD of MS2 coat protein” value with MS2 coat protein [1] came out at 75.6 nM; in the series on MS2 coat protein [2] it was 21.2 nM.
For the sequence “AAAAAAGAUCGAGAGGAUAUCCGAGUGGUAACAUGAGGAUCACCCAUGUGAAGAAAGGAACAUGAGGAGAAGGCUCGAUCAAAAA [viburnum 4]”, the “apparent KD of MS2 coat protein” value in the series with MS2 coat protein [1] was 18.7 nM; with MS2 coat protein [2], 7.85 nM.
On to “AAAAAAUAAAAAAAGGAUAUAAUCGAUGGAACAUGAGGAUCACCCAUGUGACAUCGAAAAAUAAAAAAGAAGGAAAAAUAAAAAA [SS2: MS2 24]”, for which the “apparent KD of MS2 coat protein” value in the series on MS2 coat protein [1] amounted to 11.2 nM; with MS2 coat protein [2], 17.6 nM.
In the case of “GAAGAACAUGAGGAUCACCCAUGUCAGGAUAUGCGGAAGGGAAUAAUAACUUCCGGAAGCAGAAGGGACAAGAA [Ex 1 May 49]”, the entries for the “apparent KD of MS2 coat protein” value in the series on MS2 coat protein [3] and in the series with MS2 coat protein [4] were 60 nM and 32.3 nM, respectively.
For the sequence “GAAGUACGAGGAUAUACAUAGAUACAGAUACAUGUAGACGUACAUGAGGAUCACCCAUGUAGAAGGCGUACAAG [Mat - Same state - Mayanna Mod - D117]”, the “apparent KD of MS2 coat protein” value in the series on MS2 coat protein [3] amounted to 129 nM; in the series on MS2 coat protein [4], 137 nM.
With “GACCAGUGAGGAUAUGUAAAAAAAAGAGAAGAGAAGAGAGAACAGAAGGCACAUGAGGAUCACCCAUGUAGGGA [Default title]”, the “apparent KD of MS2 coat protein” value in the series with MS2 coat protein [3] came to 170 nM; in the series with MS2 coat protein [4] it was 143 nM.
For the sequence “GAGAAUGAAGGAUAUACAUGAGGAUCACCCAUGUAAGAGAAAGAGGGAAAAGAGAAAAGUAGAAGGUCAAAGAG [Ruby 73]”, the “apparent KD of MS2 coat protein” value in the series with MS2 coat protein [3] turned out to be 26 nM; with MS2 coat protein [4] it was 23.8 nM.
The corresponding values for “GAUAAACAUGAGGAUCACCCAUGUAAGGAUAUGCGCUAACUAACUAACUAACUAACUAGCAGAAGGUACACUAC [The End]” are 26.5 nM and 24.4 nM.
With “GAUUAGGUAGGAUAUACAUGAGGAUCACCCAUGUAGGAAAAAAGCUACGAAAAAGAAUGUAGAAGGACCUAAAG [Mat - Exclusion 3 - Mayanna mod - D105]”, the “apparent KD of MS2 coat protein” value in the series on MS2 coat protein [3] was 22.9 nM; in the series on MS2 coat protein [4] it was 20.5 nM.
With “GCGCACUAAGGAUAUACAUGAGGAUCACCCAUGUGGGUUUUGAAACAGAUUAAAUAGUGUAGAAGGUAGAAAAC [Lees]”, the figures for the “apparent KD of MS2 coat protein” value in the series on MS2 coat protein [3] and in the series on MS2 coat protein [4] were 95.8 nM and 91.9 nM, respectively.
On to “GCUUGCCAAGGAUAUACAUGAGGAUCACCCAUGUGAGAGAAAAAAGUGAGAAAGAAAAGUAGAAGGUGGUGAGG [salish99-ex3-110]”, for which the “apparent KD of MS2 coat protein” value turned out to be 120 nM in the series with MS2 coat protein [3] and 26.4 nM in the series on MS2 coat protein [4].
As for “GCUUGGGAAGGAUAUACAUGAGGAUCACCCAUGUGAGAGAAAAAAGUGAGAAAGAAAAGUAGAAGGUCUUGAGG [salish99-ex3-84]”, the “apparent KD of MS2 coat protein” value was 69.4 nM with MS2 coat protein [3] and 69.5 nM in the series on MS2 coat protein [4].
For “GCUUGUGUAGGAUAUACAUGAGGAUCACCCAUGUGAGAGAAAAAAGUGAGAAAGAAAAGUAGAAGGACGUGAGG [salish99-ex3-80]”, the “apparent KD of MS2 coat protein” value with MS2 coat protein [3] stood at 76.5 nM; in the series with MS2 coat protein [4], 86.5 nM.
In the case of “GGAAAACAUGAGGAUCACCCAUGUAAGGAUAUGCAAAAAAAAAAAAGGAUAUAGAAGGGCAGAAGGUACAAAGG [salish99-ex1-30]”, the “apparent KD of MS2 coat protein” value with MS2 coat protein [3] is 36.1 nM; with MS2 coat protein [4], 23.3 nM.
With “GGAAAACAUGAGGAUCACCCAUGUAAGGAUAUGCUAAAAAAGGAAAAAAACCCACCAGGCAGAAGGUACUAAAG [Janelle Amethyst 18 Mod 3 - Jieux - Exclusion 1]”, the “apparent KD of MS2 coat protein” value amounted to 53.2 nM in the series with MS2 coat protein [3] and 22.7 nM in the series with MS2 coat protein [4].
For the sequence “GGAAAACAUGAGGAUCACCCAUGUGAGGAUAUCGAUGUCCAAAAAAAAGUGCGGGACUCGAGAAGGCACUUGGA [salish99-ex1-31]”, the results for the “apparent KD of MS2 coat protein” value in the series on MS2 coat protein [3] and with MS2 coat protein [4] were 32.5 nM and 48.2 nM, respectively.
Take “GGGUCACAUGAGGAUCACCCAUGUAAGGAUAUGCUAGGGAUGGAAACCAUUACGCAACGCAGAAGGUACUAAAG [Janelle Amethyst 18 Mod 11 - Jieux - Exclusion 1]”: the results for the “apparent KD of MS2 coat protein” value with MS2 coat protein [3] and in the series with MS2 coat protein [4] were 59 nM and 40.3 nM, respectively.
“GGUUGGCGAGGAUAUACAUGAGGAUCACCCAUGUGAGCGAAAAAAGUGAGAAAGAAAAGUAGAAGGCGCUGACG [salish99-ex3-50]”: the entries for the “apparent KD of MS2 coat protein” value in the series with MS2 coat protein [3] and with MS2 coat protein [4] were 60.5 nM and 45.7 nM, respectively.
“GGUUGUGGAGGAUAUACAUGAGGAUCACCCAUGUGAGAGAAAAAAGUGAGAAAGAAAAGUAGAAGGUCGUGACG [salish99-ex3-69]”: the “apparent KD of MS2 coat protein” value in the series on MS2 coat protein [3] worked out at 34 nM; in the series on MS2 coat protein [4], 36.8 nM.
The corresponding values for “GUGUACAGAGGAUAUACAUAAGCUAGGAAACUAGCAAGAUCACAUGAGGAUCACCCAUGUAGAAGGCUGUACAC [Ex2: 739]” are 327 nM and 270 nM.
As for “GUGUACAGAGGAUAUAUAUAAGCAUGGAAACAUGCAAGAUCACAUGAGGAUCACCCAUGUAGAAGGCUGUACAC [Ex2: 737]”, the results for the “apparent KD of MS2 coat protein” value in the series on MS2 coat protein [3] and in the series on MS2 coat protein [4] were 73.7 nM and 23.3 nM, respectively.
For “UAGAACCUAGGAUAUACUUGGGUCACUAAUUUACUGAUAUAACAUGAGGAUCACCCAUGUAGAAGGAGGAGUAA [JR_Exc002_Sub203]” the same measures were 26.7 nM and 45.2 nM.
For the sequence “UGCCGUCUAGGAUAUACAUGAGGAUCACCCAUGUGACACACAUAUUUUACAAAACCAUGUAGAAGGAGACGGCA [E3-2.0]”, the “apparent KD of MS2 coat protein” value with MS2 coat protein [3] was 477 nM; in the series with MS2 coat protein [4], 99.2 nM.
As for “UGUGAACAUGAGGAUCACCCAUGUGAGGAUAUACGAGCGUGAGAAAGAUAAAACGAGCGUAGAAGGCACAAGAA [JR_Exclusion1_Sub5]”, the figures for the “apparent KD of MS2 coat protein” value in the series with MS2 coat protein [3] and in the series on MS2 coat protein [4] were 57.5 nM and 43.3 nM, respectively.
On to “UUAGAACAUGAGGAUCACCCAUGUGAGGAUAUGCAAUACUAGCGACAAGAUCAUUAUAGCAGAAGGCACGUAGU [JR_EXc001_Sub806]”, for which the “apparent KD of MS2 coat protein” value in the series on MS2 coat protein [3] came to 40 nM; in the series on MS2 coat protein [4], 30.1 nM.
As to “UUUACGUGAGGAUAUGCGAAUAGAACGUAAGUCAUACAGACGCAGAAGGCACAUGAGGAUCACCCAUGUGAACC [JR_Exc004_Sub312]”, the “apparent KD of MS2 coat protein” value in the series with MS2 coat protein [3] was found to be 49.8 nM; in the series with MS2 coat protein [4] it was 20 nM.
Regarding “UUUAUGUGAGGAUAUACGAAUAGUAAGUAAGUCUUACAGACGUAGAAGGCACAUGAGGAUCACCCAUGUGAACC [JR_Exc004_Sub309]”, the “apparent KD of MS2 coat protein” value stood at 277 nM with MS2 coat protein [3] and 46.4 nM in the series with MS2 coat protein [4].
Turning to “UUUUGACAUGAGGAUCACCCAUGUCAGGAUAUAGUAGGACAAAAAAAAAAAAGUUCUACUAGAAGGGAUAUGAA [Design 16: Not So Super Stable 2]”, the entries for the “apparent KD of MS2 coat protein” value in the series on MS2 coat protein [3] and in the series with MS2 coat protein [4] were 26.7 nM and 17.8 nM, respectively.
